Patent US9133449B2, “Mutant pyrrolysyl-tRNA synthetase, and method for production of protein having non-natural amino acid integrated therein by using the same” (priority 2007, dated 2015)

Columns and labels:
[1] = tested on: tRNA^Pyl; experiment: Aminoacylation assay of PylRS mutants / PylRS(c270); assay type: biochemical, Methanosarcina mazei
Protocol: The full length PylRS mutant was overexpressed in E. coli cells, and then purified using HisTrap column (Amersham Biosciences Inc.). Aminoacylation reaction was performed at ca. 37 degrees Celsius for 1 h. The reaction solution for aminoacylation comprises 2.83 μM of purified PylRS derived from M. mazei (or 9 μM of PylRS (c270)), 10 mM of MgCl2, 2 mM of ATP, 4 mM of DTT, 2.11 μM of transcript of M. mazei-derived tRNA^Pyl, and adequate amount of concentrated solution of a variety of amino acids dissolved in 100 mM of HEPES buffer (pH 7.2). Acid-urea polyacrylamide gel electrophoresis was used to analyze whether tRNA had been aminoacylated or not.

[2] = tested on: amber stop codon in the chloramphenicol acetyltransferase (CAT) gene, E. coli DH10B cells; experiment: Positive selection by suppression of amber stop codon in CAT gene (chloramphenicol resistance); assay type: cell-based
Protocol: The PylRS mutant library was first subjected to a positive selection based on suppression of an amber stop codon located at a nonessential position in the chloramphenicol acetyltransferase (CAT) gene. […] Then the surviving cells were grown in the presence of chloramphenicol and the absence of Boc-Lys.

B1: PylRS(c270) mutant (Y306A) (protein, UniProt Q8PWY1 185-454, looked up, variant Y306A)
chain: ASAPALTKSQTDRLEVLLNPKDEISLNSGKPFRELESELLSRRKKDLQQIYAEERENYLGKLEREITRFFVDRGFLEIKSPILIPLEYIERMGIDNDTELSKQIFRVDKNFCLRPMLAPNLANYLRKLDRALPDPIKIFEIGPCYRKESDGKEHLEEFTMLNFCQMGSGCTRENLESIITDFLNHLGIDFKIVGDSCMVYGDTLDVMHGDLELSSAVVGPIPLDREWGIDKPWIGAGFGLERLLKVKHDFKNIKRAARSESYYNGISTNL
esterification of tRNA^Pyl with Z-Lys ([1]; substrate Z-Lys, compared with wild-type PylRS): much more efficiently than the wild-type PylRS

B2: PylRS(c270): M. mazei PylRS of which the 184 amino acids from the N terminus were truncated (protein, UniProt Q8PWY1 185-454, looked up, fragment)
chain: ASAPALTKSQTDRLEVLLNPKDEISLNSGKPFRELESELLSRRKKDLQQIYAEERENYLGKLEREITRFFVDRGFLEIKSPILIPLEYIERMGIDNDTELSKQIFRVDKNFCLRPMLAPNLYNYLRKLDRALPDPIKIFEIGPCYRKESDGKEHLEEFTMLNFCQMGSGCTRENLESIITDFLNHLGIDFKIVGDSCMVYGDTLDVMHGDLELSSAVVGPIPLDREWGIDKPWIGAGFGLERLLKVKHDFKNIKRAARSESYYNGISTNL
aminoacylation activity with pyrrolysine ([1]; substrate pyrrolysine): may esterify

B3: PylRS mutant (Y384F) (protein, UniProt Q8PWY1 1-454, looked up, variant Y384F)
Pyrrolysine--tRNA ligase: MDKKPLNTLISATGLWMSRTGTIHKIKHHEVSRSKIYIEMACGDHLVVNNSRSSRTARALRHHKYRKTCKRCRVSDEDLNKFLTKANEDQTSVKVKVVSAPTRTKKAMPKSVARAPKPLENTEAAQAQPSGSKFSPAIPVSTQESVSVPASVSTSISSISTGATASALVKGNTNPITSMSAPVQASAPALTKSQTDRLEVLLNPKDEISLNSGKPFRELESELLSRRKKDLQQIYAEERENYLGKLEREITRFFVDRGFLEIKSPILIPLEYIERMGIDNDTELSKQIFRVDKNFCLRPMLAPNLYNYLRKLDRALPDPIKIFEIGPCYRKESDGKEHLEEFTMLNFCQMGSGCTRENLESIITDFLNHLGIDFKIVGDSCMVFGDTLDVMHGDLELSSAVVGPIPLDREWGIDKPWIGAGFGLERLLKVKHDFKNIKRAARSESYYNGISTNL
concentration of chloramphenicol at which cells survived ([2]; in the absence of Boc-Lys): less than 25 μg/ml
concentration of chloramphenicol at which cells survived ([2]; in the presence of Boc-Lys (1 mM)): 150 µg/mL
